Measurements published in patent US20030162190, “Phosphoromonothioate and phosphorodithioate oligonucleotide aptamer chip for functional proteomics” (published 2003).

Target: NF-kB p65 (RelA) homodimer (UniProt Q04206 Q04206:1-551)
Experiment: EMSA; competitive EMSA; 5 to 15-fold tighter to p65/p65 than p50 homodimer
Conditions: chain copies: 2 (stated homodimer)
Protocol: The example used to illustrate that when only one or two dithioate linkages were placed in a molecule, the inhibition/binding of the oligonucleotide to recombinant protein was similar to that of the unsubstituted aptamer illustrates is shown in FIG. 3—as the substitutions of dithiophosphate were increased, binding by the [S₂]-ODN oligonucleotide increased dramatically. For example, in a standard competitive binding assay, ³²P-IgκB promoter element ODN is incubated with recombinant p65 and varying amounts of XBY aptamer competitor. The relative binding ability of the unlabeled ODNs is determined by the concentration needed to effectively compete with the standard labeled ODN. XBY1 through 6 correspond to CK-14 aptamers with 1 through 6 dithiophsphate substitutions, respectively. The present inventors, according to an embodiment of this invention, developed an oligonucleotide containing six dithioate linkages on the two strands, termed XBY-6.
Competitive binding of XBY-6 to p65 homodimers is performed using EMSAs. XBY-6 concentrations are 1.95 (triangle), 3.89 (open circle), and 7.77 (closed circle).

Chain of NF-kB p65 (RelA) homodimer (Q04206 whole entry, one chain of several): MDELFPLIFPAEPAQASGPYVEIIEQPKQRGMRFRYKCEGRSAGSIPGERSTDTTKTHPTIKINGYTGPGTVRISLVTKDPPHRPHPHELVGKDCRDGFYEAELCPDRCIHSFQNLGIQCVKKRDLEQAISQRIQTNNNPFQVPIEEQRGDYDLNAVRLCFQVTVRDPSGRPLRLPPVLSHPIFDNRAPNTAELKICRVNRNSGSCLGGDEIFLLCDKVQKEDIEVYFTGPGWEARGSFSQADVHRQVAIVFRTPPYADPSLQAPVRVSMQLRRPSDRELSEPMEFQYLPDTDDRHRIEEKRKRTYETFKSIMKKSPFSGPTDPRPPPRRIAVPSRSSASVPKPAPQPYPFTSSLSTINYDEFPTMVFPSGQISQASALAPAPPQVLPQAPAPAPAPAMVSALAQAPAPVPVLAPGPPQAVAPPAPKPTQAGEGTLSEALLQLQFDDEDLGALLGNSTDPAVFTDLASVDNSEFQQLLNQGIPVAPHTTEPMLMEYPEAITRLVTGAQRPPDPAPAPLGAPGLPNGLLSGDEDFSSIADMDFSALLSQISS

B1: XBY-6 (dsDNA)
DNA 1: CCAGGAGATTCCAC
DNA 2: GTGGAATCTCCTGG
modifications: six phosphorodithioate linkages on the two strands, positions shown only in figures
Kd: 1.44 nM
